# Results as given in patent US20230125550A1 (ARCELLX, published 2023).
# Where a chain is given by its changes, count along the chain named.
# T1: recombinant human CD123-Fc (human, UniProt P26951 19-305)
# T1 construct: not shown: Fc part of CD123-Fc
# T1 sequence: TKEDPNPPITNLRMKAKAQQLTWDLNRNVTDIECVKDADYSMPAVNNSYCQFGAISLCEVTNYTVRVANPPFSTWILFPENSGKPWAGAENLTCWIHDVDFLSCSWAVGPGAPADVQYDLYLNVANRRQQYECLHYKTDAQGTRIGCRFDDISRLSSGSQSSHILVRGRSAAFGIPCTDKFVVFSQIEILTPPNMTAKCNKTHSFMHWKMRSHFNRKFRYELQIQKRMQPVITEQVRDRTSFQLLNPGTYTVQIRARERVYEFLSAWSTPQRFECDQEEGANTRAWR
# B1: SEQ ID NO: 497 (designed binder)
# chain: MGSWYYFKDELADIKWDLEALGGSEAELAWFEMLIAQFELDLQWYKGKGNPEVEALRKEAAAIRDELQAYRHN
# notes: D domain, on phage
# B2: SEQ ID NO: 499 (designed binder)
# chain: B1 chain with Y6Q, D9H, E10D, W16Y, D17G, M33D, L34D, Q37D, W44Y
# notes: D domain, on phage
# B3: SEQ ID NO: 498 (designed binder)
# chain: B1 chain with Y5M, E10T, D17Y, W30F, M33D, L34W, Q37E, L40D, W44V
# notes: D domain, on phage
# B4: SEQ ID NO: 500 (designed binder)
# chain: B1 chain with Y6V, E10D, W16Y, D17M, M33W, L34E, Q37N, L40F, W44Y
# notes: D domain, on phage
# B5: SEQ ID NO: 495 (designed binder)
# chain: MGSWYDFKEDLADIKWMLEALGGSEAELAEFENVIAYFENDLQEYKGKGNPEVEALRKEAAAIRDELQAYRHN
# notes: D domain, on phage
# B6: SEQ ID NO: 490 (designed binder)
# chain: MGSWYDFKYDLAEIKMDLEALGGSEAELAQFEFDIAFFEEELQDYKGKGNPEVEALRKEAAAIRDELQAYRHN
# notes: D domain, on phage
# B7: SEQ ID NO: 469 (designed binder)
# chain: MGSWEEFKEDLAEIKVWLEALGGSEAELAWFEMGIADFEDGLQFYKGKGNPEVEALRKEAAAIRDELQAYRHN
# notes: D domain, on phage
# B8: SEQ ID NO: 488 (designed binder)
# chain: B7 chain with E5A, E6W, W17F, W30E, M33V, G34S, D40Y, G41E, F44D
# notes: D domain, on phage
# B9: SEQ ID NO: 479 (designed binder)
# chain: B7 chain with E5W, V16W, W17F, M33H, G34D, D37K, D40F, G41E, F44Y
# notes: D domain, on phage
# B10: SEQ ID NO: 470 (designed binder)
# chain: B7 chain with E5H, E6W, E13N, V16D, M33D, G34N, D40G, G41D, F44V
# notes: D domain, on phage
# B11: SEQ ID NO: 471 (designed binder)
# chain: MGSWFWFKEDLAFIKEDLEALGGSEAELAWFEDGIAFFEWDLQDYKGKGNPEVEALRKEAAAIRDELQAYRHN
# notes: D domain, on phage
# B12: SEQ ID NO: 473 (designed binder)
# chain: B11 chain with F5H, F13I, E16Q, W30T, D33Q, G34W, F37E, D44E
# notes: D domain, on phage
# B13: SEQ ID NO: 489 (designed binder)
# chain: B11 chain with F5Y, W6E, E9F, F13E, D17Q, W30L, G34D, W40Y, D44N
# notes: D domain, on phage
# B14: SEQ ID NO: 474 (designed binder)
# chain: B11 chain with F5N, F13I, E16M, D33H, G34N, F37G, W40F, D41E, D44G
# notes: D domain, on phage
# B15: SEQ ID NO: 472 (designed binder)
# chain: B11 chain with F5Q, F13E, E16H, G34F, F37Q, W40F, D44W
# notes: D domain, on phage
# B16: SEQ ID NO: 481 (designed binder)
# chain: MGSWNEFKDDLAMIKMTLEALGGSEAELAWFEHDIAEFEDDLQWYKGKGNPEVEALRKEAAAIRDELQAYRHN
# notes: D domain, on phage
# B17: SEQ ID NO: 482 (designed binder)
# chain: B16 chain with N5T, E6F, M13E, M16W, T17M, H33S, E37Y, D41E
# notes: D domain, on phage
# B18: SEQ ID NO: 484 (designed binder)
# chain: B16 chain with N5S, E6M, M13E, M16A, T17S, H33D, E37W, W44H
# notes: D domain, on phage
# B19: SEQ ID NO: 483 (designed binder)
# chain: B16 chain with N5S, E6D, M13E, T17I, W30Y, H33N, E37W, W44E
# notes: D domain, on phage
# B20: SEQ ID NO: 485 (designed binder)
# chain: B16 chain with N5Q, E6Y, M13E, T17V, H33A, E37M, W44I
# notes: D domain, on phage
# B21: SEQ ID NO: 480 (designed binder)
# chain: B16 chain with N5E, E6W, D9S, M13S, M16W, T17E, D40E
# notes: D domain, on phage
# B22: SEQ ID NO: 467 (designed binder)
# chain: MGSWEFFKEVLAEIKYDLEALGGSEAELAWFETDIAGFEIDLQVYKGKGNPEVEALRKEAAAIRDELQAYRHN
# notes: D domain, on phage
# B23: SEQ ID NO: 468 (designed binder)
# chain: B7 chain with E5V, E6F, E13T, V16N, W17D, G34M, D40A, G41D, F44Y
# notes: D domain, on phage
# B24: SEQ ID NO: 487 (designed binder)
# chain: B7 chain with E5M, D10E, V16Y, W17I, M33Q, G34S, D40Y, G41D, F44D
# notes: D domain, on phage
# B25: SEQ ID NO: 493 (designed binder)
# chain: MGSWQDFKEDLAWIKYELEALGGSEAELAFFEYDIAIFENNLQHYKGKGNPEVEALRKEAAAIRDELQAYRHN
# notes: D domain, on phage
# B26: SEQ ID NO: 475 (designed binder)
# chain: MGSWSWFKEDLAEIKMELEALGGSEAELAYFEWYIAEFEFQLQHYKGKGNPEVEALRKEAAAIRDELQAYRHN
# notes: D domain, on phage
# B27: SEQ ID NO: 491 (designed binder)
# chain: B26 chain with S5Y, W6I, M16E, W33E, Y34E, E37L, F40M, Q41E, H44W
# notes: D domain, on phage
# B28: SEQ ID NO: 476 (designed binder)
# chain: B26 chain with E9Q, E13D, M16I, E17Q, Y30W, Y34D, Q41E, H44D
# notes: D domain, on phage
# B29: SEQ ID NO: 478 (designed binder)
# chain: B26 chain with E13S, M16A, E17V, Y30F, W33S, Y34D, F40Q, Q41E, H44Y
# notes: D domain, on phage
# B30: SEQ ID NO: 477 (designed binder)
# chain: B26 chain with E13D, M16F, Y30W, W33L, Y34D, E37D, F40Q, Q41A, H44Q
# notes: D domain, on phage
# B31: SEQ ID NO: 501 (designed binder)
# chain: MGSWNFFKYDLADIMAYLEALGGSEAELAFFEDEIANFEHDLQKYKGKGNPEVEALRKEAAAIRDELQAYRHN
# notes: D domain, on phage
# B32: SEQ ID NO: 466 (designed binder)
# chain: MGSWIFFKEQLAIIKWELEALGGSEAELAWFEDDIAAFEDDLQFYKGQGNPEVEALRKEAAAIRDELQAYRHN
# notes: D domain, on phage
# B33: SEQ ID NO: 465 (designed binder)
# chain: MGSWYVFKDELAEIKQFLEALGGSEAELAWFEDDIAEFETQLQHYKGKGNPEVEALRKEAAAIRDELQAYRHN
# notes: D domain, on phage
# B34: SEQ ID NO: 496 (designed binder)
# chain: B1 chain with Y6M, D9E, D17Y, M33D, L34D, Q37G, L40W, W44A
# notes: D domain, on phage
# B35: SEQ ID NO: 494 (designed binder)
# chain: MGSWDHFKNDLAWIKKHLEALGGSEAELAEFEAVIAYFELYLQGYKGKGNPEVEALRKEAAAIRDELQAYRHN
# notes: D domain, on phage
# B36: SEQ ID NO: 502 (designed binder)
# chain: MGSWHWFKIVLADIKDGLEALGGSEAELAYFETTIADFEMDLQHYKGKGNPEVEALRKEAAAIRDELQAYRHN
# notes: D domain, on phage
# B37: SEQ ID NO: 503 (designed binder)
# chain: B36 chain with Q43H
# notes: D domain, on phage
# B38: SEQ ID NO: 492 (designed binder)
# chain: MGSWVLFKEELAYIKFELEALGGSEAELALFENVIAIFESNLQNYKGKGNPEVEALRKEAAAIRDELQAYRHN
# notes: D domain, on phage
# B39: SEQ ID NO: 486 (designed binder)
# chain: MGSWSFFKDDLAEIKYFLEALGGSEAELAMFEQTIAEFEYDLQDYKGKGNPEVEALRKEAAAIRDELQAYRHN
# notes: D domain, on phage
# Molecular target: T1, recombinant human CD123-Fc
# Test: phage ELISA, captured CD123-Fc
# Procedure, shortened: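 Phage from BCMA panning colonies were rescued with VCSM13 helper phage and diluted 5× in blocking buffer. Plates coated with anti-human IgG1-Fc captured 5 nM target-Fc or IgG1-Fc, and binding was detected with HRP anti-M13. Ratio = A450 target/A450 IgG1-Fc, averaged over the clone's wells.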
row,Binder,ELISA_avg
1,B1,4 ratio A450 target/IgG1-Fc
2,B2,4.7 ratio A450 target/IgG1-Fc
3,B3,3.1 ratio A450 target/IgG1-Fc
4,B4,3.8 ratio A450 target/IgG1-Fc
5,B5,8 ratio A450 target/IgG1-Fc
6,B6,3.2 ratio A450 target/IgG1-Fc
7,B7,4.3 ratio A450 target/IgG1-Fc
8,B8,3.5 ratio A450 target/IgG1-Fc
9,B9,5.1 ratio A450 target/IgG1-Fc
10,B10,3.3 ratio A450 target/IgG1-Fc
11,B11,13.7 ratio A450 target/IgG1-Fc
12,B12,5.5 ratio A450 target/IgG1-Fc
13,B13,4.6 ratio A450 target/IgG1-Fc
14,B14,3.1 ratio A450 target/IgG1-Fc
15,B15,3.8 ratio A450 target/IgG1-Fc
16,B16,3.5 ratio A450 target/IgG1-Fc
17,B17,3.3 ratio A450 target/IgG1-Fc
18,B18,5.2 ratio A450 target/IgG1-Fc
19,B19,4.7 ratio A450 target/IgG1-Fc
20,B20,3.6 ratio A450 target/IgG1-Fc

row,Binder,ELISA_avg
1,B21,5.7 ratio A450 target/IgG1-Fc
2,B22,8.2 ratio A450 target/IgG1-Fc
3,B23,3.1 ratio A450 target/IgG1-Fc
4,B24,5 ratio A450 target/IgG1-Fc
5,B25,3.2 ratio A450 target/IgG1-Fc
6,B26,4.8 ratio A450 target/IgG1-Fc
7,B27,11.1 ratio A450 target/IgG1-Fc
8,B28,4 ratio A450 target/IgG1-Fc
9,B29,6.9 ratio A450 target/IgG1-Fc
10,B30,6.8 ratio A450 target/IgG1-Fc
11,B31,4.4 ratio A450 target/IgG1-Fc
12,B32,15 ratio A450 target/IgG1-Fc
13,B33,9.9 ratio A450 target/IgG1-Fc
14,B34,7 ratio A450 target/IgG1-Fc
15,B35,3.3 ratio A450 target/IgG1-Fc
16,B36,4.3 ratio A450 target/IgG1-Fc
17,B37,3.5 ratio A450 target/IgG1-Fc
18,B38,3.5 ratio A450 target/IgG1-Fc
19,B39,10.1 ratio A450 target/IgG1-Fc
